Results from patent US11278600B2, “Human alpha-galactosidase variants” (Codexis, Inc., priority 2014, dated 2022).

Experiments:
Format in all cases: biochemical
[1] = HTP-analysis of yeast culture supernatants, no challenge (MUGal hydrolysis); conditions: activity of the variant/activity of WT GLA (SEQ ID NO: 5), yeast supernatant
In short: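 GLA variants were expressed in INVSc1 yeast grown in SD-Ura broth with glucose at 30° C., and culture supernatants were collected after 66-84 h. Supernatant was mixed with McIlvaine buffer pH 4.8 and MUGal (2 mM stock) in 50 mM citrate, 200 mM KCl, pH 4.6, incubated at 37° C. for 30-180 minutes, then quenched with sodium carbonate.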

[2] = HTP-analysis of supernatants pretreated with acid (MUGal hydrolysis); conditions: challenge at pH 4.2; activity of the variant/activity of WT GLA (SEQ ID NO: 5); yeast supernatant
In short: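 Yeast INVSc1 supernatant, GLA variants; acid challenge: McIlvaine pH 3.3-4.3, 37° C., 1-3 h. Assay: MUGal in McIlvaine pH 4.8 plus citrate pH 4.3, 37° C., 30-180 min, Na2CO3 stop, Ex 355/Em 448 nm.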

[3] = HTP-analysis of supernatants pretreated with base (MUGal hydrolysis); conditions: challenge at pH 7.1; activity of the variant/activity of WT GLA (SEQ ID NO: 5); yeast supernatant
In short: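 Supernatants from INVSc1 yeast expressing GLA variants (SD-Ura, 66-84 h, 30° C) were mixed with McIlvaine buffer pH 7.0-8.2 or 200 mM sodium bicarbonate pH 9.1-9.7 and held 1-18 h at 37° C. Residual activity was then measured on MUGal at pH 4.8/4.3, 37° C, 30-180 min, by fluorescence (Ex 355/Em 448 nm).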

| Molecule | Relative Activity of GLA Variants After No Challenge (NC) [1] | Relative Activity of GLA Variants After Challenge at pH 4.2 [2] | Relative Activity of GLA Variants After Challenge at pH 7.1 [3] |
| --- | --- | --- | --- |
| 137 (protein, Synthetic Polypeptide sequence of Variant No. 13 of mature Human GLA) LDNGLARTPTMGWLHWERFMCNLDCQEEPDSCISEKLFMEMAELMVSEGWKDAGYEYLCIDDCWMAPQRDSEGRLQADPQRFPHGIRQLANYVHSKGLKLGIYADVGNKTCAGFPGSFGYYDIDAQTFADWGVDLLKFDGCYCDSLENLADGYKHMSLALNRTGRSIVYSCEWPLYMWPFQKPNYTEIRQYCNHWRNFADIDDSWKSIKSILDWTSFNQERIVDVAGPGGWNDPDMLVIGNFGLSWNQQVTQMALWAIMAAPLFMSNDLRHISPQAKALLQDKDVIAINQDPLGKQGYQLRAGDNFEVWERPLSGLAWAVAMINRQEIGGPRSYTIAVASLGKGVACNPACFITQLLPVKRKLGFYEWTSRLRSHINPTGTVLLQLENTMQMSKDLLL | + (+ = 0.5 to 1.5 relative activity over WT GLA (SEQ ID NO: 5)) | + (+ = 0.5 to 1.5 relative activity over WT GLA (SEQ ID NO: 5)) | + (+ = 0.5 to 1.5 relative activity over WT GLA (SEQ ID NO: 5)) |
| 138 (protein, Synthetic Polypeptide sequence of Variant No. 138 of mature Human GLA) LDNGLARTPTMGWLHWERFMCNLDCQEEPDSCISEKLFMEMAELMVSEGWKDAGYEYLCIDDCWMAPQRDSEGRLQADPQRFPHGIRQLANYVHSKGLKLGIYADVGNKTCAGFPGSFGYYDIDAQTFADWGVDLLKFDGCYCDSLENLADGYKHMSLALNRTGRSIVYSCEWPLYMWPFQKPNYTEIRQYCNHWRNFADIDDSWKSIKSILDWTSFNQERIVDVAGPGGWNDPDMLVIGNFGLSWNQQVTQMALWAIMAAPLFMSNDLRHISPQAKALLQDKDVIAINQDPLGKQGYQLRQGDNFEVWERPLSGLAWAVAMINRQEIGGPRSYTIAVASLGKGVACNPACFITQLLPVKRKLGFYEWTSRLRSHINPTGTVLLHLENTMQMSKDLLL | ++ (++ = >1.5 to 2.5 relative activity over WT GLA (SEQ ID NO: 5)) | ++ (++ = >1.5 to 2.5 relative activity over WT GLA (SEQ ID NO: 5)) | ++ (++ = >1.5 to 2.5 relative activity over WT GLA (SEQ ID NO: 5)) |
| 139 (protein, Synthetic Polypeptide sequence of Variant No. 139 of mature Human GLA) LDNGLARTPTMGWLHWERFMCNLDCQEEPDSCISEKLFMEMAELMVSEGWKDAGYEYLCIDDCWMAPQRDSEGRLQADPQRFPHGIRQLANYVHSKGLKLGIYADVGNKTCAGFPGSFGYYDIDAQTFADWGVDLLKFDGCYCDSLENLADGYKHMSLALNRTGRSIVYSCEWPLYMWPFQKPNYTEIRQYCNHWRNFADIDDSWKSIKSILDWTSFNQERIVDVAGPGGWNDPDMLVIGNFGLSWNQQVTQMALWAIMAAPLFMSNDLRHISPQAKALLQDKDVIAINQDPLGKQGYQLRQGDNFEVWERPLSGLAWAVAMINRQEIGGPRSYTIAVASLGKGVACNPACFITQLLPVKRKLGFYEWTSRLRSHINPTGTVLLILENTMQMSKDLLL | + (+ = 0.5 to 1.5 relative activity over WT GLA (SEQ ID NO: 5)) | + (+ = 0.5 to 1.5 relative activity over WT GLA (SEQ ID NO: 5)) | + (+ = 0.5 to 1.5 relative activity over WT GLA (SEQ ID NO: 5)) |
| 140 (protein, Synthetic Polypeptide sequence of Variant No. 140 of mature Human GLA) LDNGLARTPTMGWLHWERFMCNLDCQEEPDSCISEKLFMEMAELMVSEGWKDAGYEYLCIDDCWMAPQRDSEGRLQADPQRFPHGIRQLANYVHSKGLKLGIYADVGNKTCAGFPGSFGYYDIDAQTFADWGVDLLKFDGCYCDSLENLADGYKHMSLALNRTGRSIVYSCEWPLYMWPFQKPNYTEIRQYCNHWRNFADIDDSWKSIKSILDWTSFNQERIVDVAGPGGWNDPDMLVIGNFGLSWNQQVTQMALWAIMAAPLFMSNDLRHISPQAKALLQDKDVIAINQDPLGKQGYQLRQGDNFEVWERPLSGLAWAVAMINRQEIGGPRSYTIAVASLGKGVACNPACFITQLLPVKRKLGFYEWTSRLRSHINPTGTVLLLLENTMQMSKDLLL | ++ (++ = >1.5 to 2.5 relative activity over WT GLA (SEQ ID NO: 5)) | ++ (++ = >1.5 to 2.5 relative activity over WT GLA (SEQ ID NO: 5)) | ++ (++ = >1.5 to 2.5 relative activity over WT GLA (SEQ ID NO: 5)) |
| 141 (protein, Synthetic Polypeptide sequence of Variant No. 141 of mature Human GLA) LDNGLARTPTMGWLHWERFMCNLDCQEEPDSCISEKLFMEMAELMVSEGWKDAGYEYLCIDDCWMAPQRDSEGRLQADPQRFPHGIRQLANYVHSKGLKLGIYADVGNKTCAGFPGSFGYYDIDAQTFADWGVDLLKFDGCYCDSLENLADGYKHMSLALNRTGRSIVYSCEWPLYMWPFQKPNYTEIRQYCNHWRNFADIDDSWKSIKSILDWTSFNQERIVDVAGPGGWNDPDMLVIGNFGLSWNQQVTQMALWAIMAAPLFMSNDLRHISPQAKALLQDKDVIAINQDPLGKQGYQLRQGDNFEVWERPLSGLAWAVAMINRQEIGGPRSYTIAVASLGKGVACNPACFITQLLPVKRKLGFYEWTSRLRSHINPTGTVLLQLENTMGMSKDLLL | + (+ = 0.5 to 1.5 relative activity over WT GLA (SEQ ID NO: 5)) | + (+ = 0.5 to 1.5 relative activity over WT GLA (SEQ ID NO: 5)) | + (+ = 0.5 to 1.5 relative activity over WT GLA (SEQ ID NO: 5)) |
| 142 (protein, Synthetic Polypeptide sequence of Variant No. 142 of mature Human GLA) LDNGLARTPTMGWLHWERFMCNLDCQEEPDSCISEKLFMEMAELMVSEGWKDAGYEYLCIDDCWMAPQRDSEGRLQADPARFPHGIRQLANYVHSKGLKLGIYADVGNKTCAGFPGSFGYYDIDAQTFADWGVDLLKFDGCYCDSLENLADGYKHMSLALNRTGRSIVYSCEWPLYMWPFQKPNYTEIRQYCNHWRNFADIDDSWKSIKSILDWTSFNQERIVDVAGPGGWNDPDMLVIGNFGLSWNQQVTQMALWAIMAAPLFMSNDLRHISPQAKALLQDKDVIAINQDPLGKQGYQLRQGDNFEVWERPLSGLAWAVAMINRQEIGGPRSYTIAVASLGKGVACNPACFITQLLPVKRKLGFYEWTSRLRSHINPTGTVLLQLENTMQMSKDLLL | + (+ = 0.5 to 1.5 relative activity over WT GLA (SEQ ID NO: 5)) | + (+ = 0.5 to 1.5 relative activity over WT GLA (SEQ ID NO: 5)) | + (+ = 0.5 to 1.5 relative activity over WT GLA (SEQ ID NO: 5)) |
